The values that follow come from paper doi:10.1101/2021.02.24.432666.

The target of this assay is yeast TRiC subunit CCT5 (yeast) (UniProt P40413). In words: cryo-EM structure.

“yeast TRiC subunit CCT5 (from UniProt P40413 1-562) (natural protein)”: the stoichiometry N (subunits (single ring)) was 8.
